Results published in patent publication KR20160086217A (dated 2016).

Key:
[1] = target: T1, c-Met (UniProt P08581 25-932, limits assumed); experiment: SPR, Biacore T100; antibody (from GSKO 301 GS cells) captured on Human Fab binder on CM5 chip, c-Met as analyte, 1:1 kinetic fit; rounded form of the value in r2
T1 construct: also called 항원인 c-Met

[2] = target: T1, c-Met; experiment: SPR, Biacore T100; antibody (from GSKO 301 GS cells) captured on Human Fab binder on CM5 chip, c-Met as analyte 25 to 0.78 nmol, 1:1 kinetic fit
[3] = target: T1, c-Met; experiment: SPR, Biacore T100; antibody (from GSKO GLUD1 301 GS cells) captured on Human Fab binder on CM5 chip, c-Met as analyte 25 to 0.78 nmol, 1:1 kinetic fit
[4] = target: T1, c-Met; experiment: SPR, Biacore T100; antibody (from GSKO GLUD1 301 GS cells) captured on Human Fab binder on CM5 chip, c-Met as analyte, 1:1 kinetic fit; rounded form of the value in r2

T1 sequence (P08581 25-932 limits assumed): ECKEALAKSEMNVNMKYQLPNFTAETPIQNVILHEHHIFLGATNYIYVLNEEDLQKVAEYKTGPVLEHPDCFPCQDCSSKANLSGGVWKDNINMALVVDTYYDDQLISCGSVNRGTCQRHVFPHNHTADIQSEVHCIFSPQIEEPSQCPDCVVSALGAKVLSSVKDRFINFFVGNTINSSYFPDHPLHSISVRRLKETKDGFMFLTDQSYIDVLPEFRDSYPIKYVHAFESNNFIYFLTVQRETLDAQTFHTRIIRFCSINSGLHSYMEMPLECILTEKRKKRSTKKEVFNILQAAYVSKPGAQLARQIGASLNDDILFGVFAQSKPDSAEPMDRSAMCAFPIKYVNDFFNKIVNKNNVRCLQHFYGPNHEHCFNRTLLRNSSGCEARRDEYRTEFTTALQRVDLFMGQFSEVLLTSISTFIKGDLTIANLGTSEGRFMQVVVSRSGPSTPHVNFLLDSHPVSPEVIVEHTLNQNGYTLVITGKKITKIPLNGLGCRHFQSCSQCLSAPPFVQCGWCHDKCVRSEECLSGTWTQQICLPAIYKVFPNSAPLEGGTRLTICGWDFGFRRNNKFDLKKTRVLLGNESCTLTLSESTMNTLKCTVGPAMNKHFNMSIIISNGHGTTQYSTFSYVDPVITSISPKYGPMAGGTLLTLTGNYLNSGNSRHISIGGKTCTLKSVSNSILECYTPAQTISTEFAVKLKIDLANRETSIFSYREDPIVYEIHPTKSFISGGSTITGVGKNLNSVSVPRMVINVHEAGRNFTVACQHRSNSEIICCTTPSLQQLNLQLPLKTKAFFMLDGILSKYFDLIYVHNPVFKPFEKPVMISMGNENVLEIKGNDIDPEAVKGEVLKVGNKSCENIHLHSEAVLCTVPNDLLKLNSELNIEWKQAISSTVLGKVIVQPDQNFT

B1: 항 c-Met 항체 L3-1Y/IgG2 (antibody, V domains shown)
VH: EVQLVESGGGLVQPGGSLRLSCAASGFTFTDYYMSWVRQAPGKGLEWLGFIRNKANGYTTEYSASVKGRFTISRDNSKNTLYLQMNSLRAEDTAVYYCARDNWFAYWGQGTLVTVSS
VL: DIQMTQSPSSLSASVGDRVTITCKSSQSLLASGNQNNYLAWYQQKPGKAPKMLIIWASTRVSGVPSRFSGSGSGTDFTLTISSLQPEDFATYYCQQSYSRPYTFGQGTKVEIKR
notes: also called S301-12A37 standard; S301-12A37
[1]
  Kd: 0.06 nM
[2]
  Kd: 0.0573 nM
[3]
  Kd: 0.0926 nM
[4]
  Kd: 0.09 nM
